This is an account of results in publication PMC5324674, “NBP35 interacts with DRE2 in the maturation of cytosolic iron‐sulphur proteins in Arabidopsis thaliana” (The Plant Journal, 2017).

In this assay the target is T1, Purified NBP35 (His‐tagged, from E. coli) (Arabidopsis thaliana, UniProt Q8H1Q2 1-350).
T1 construct: The SPR methods say only 'purified NBP35'; also called wild‐type NBP35; source: E. coli, purified (His-Trap HP column, desalted on PD10)
T1 sequence (looked up): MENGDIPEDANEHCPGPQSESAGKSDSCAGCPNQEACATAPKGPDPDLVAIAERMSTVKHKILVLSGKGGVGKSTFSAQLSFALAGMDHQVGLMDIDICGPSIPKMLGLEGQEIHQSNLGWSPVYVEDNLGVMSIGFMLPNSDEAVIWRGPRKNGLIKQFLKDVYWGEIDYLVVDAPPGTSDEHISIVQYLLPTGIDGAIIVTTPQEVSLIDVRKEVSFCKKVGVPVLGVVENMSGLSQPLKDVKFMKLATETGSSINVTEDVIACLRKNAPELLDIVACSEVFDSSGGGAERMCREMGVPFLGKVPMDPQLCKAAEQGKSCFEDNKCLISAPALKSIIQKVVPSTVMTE
Nature of the assay: SPR; Biacore T200, Streptavidin chip; Strep-tagged DRE2 captured from E. coli cell extract (about 1700 RU); purified NBP35 0-45 uM injected, multi-cycle; 25°C; 20 mM Tris-HCl pH 8, 0.15 M NaCl, 5% glycerol; equilibrium response, Affinity Fit, 1:1 model. Particulars: one partner purified.

B1: Strep‐tagged DRE2 (natural protein)
chain: not shown
notes: DRE2/CIAPIN1, Arabidopsis thaliana, AT5G18400; printed also as 'DRE2-Strep'; also called DRE2‐Strep; source: E. coli cell extract, captured on a Streptavidin sensor chip
A word on the Kd: it is a measure of binding affinity in units of concentration. A high value points to a looser complex. For B1, the affinity, expressed as Kd, was 3.3 ± 0.9 µM.
